Assay results published in patent CN115975019A (INST PATHOGEN BIOLOGY CAMS, dated 2023).

B1: A70抗体 (antibody, V domains shown)
VH: QITLKESGPTLVKPTQTLTLTCTFSGFSLDTPGVAIGWIRQPPGRALEWLGLIYWDGDERYNPSLTSRVTLTKDTSKNQVVLTMTNVDSVDTGTYFCGHKTIPTIFGVWGQGAPVTVSS
VL: QSALTQPASVSGSPGQSITISCAATSGDFGVFNYVSWYQQHPGKAPKLIIFEVSSRPSGVSNRFSGSKSGNTASLTVSGLQAEDEAVYHCSSYSTSSVVFGGGTKLTVL
notes: also called 抗体A70
B2: A46抗体 (antibody, V domains shown)
VH: EVQLLESGGGLIQPGGSLRLSCAVSEFIVSRNYMSWVRQAPGKGLEWVSVLYPGGSTFYADSVKGRFTISRDESTNTLFLQMNTLRVEDTAVYYCARDFGDFYFDFWGQGTLVTVSS
VL: EIVLTQSPGTLSLSPGQRAALSCRASQSVSTYLAWYQQKPGQAPRLLIHDASSRASGVPDRFSGTGSGTDFTLTITRLEPEDFAVYYCQQYGTSPRTFGQGTKLEIK
notes: also called 抗体A46

Molecular target: T1, SARS-CoV-2 刺突ECD蛋白 (Sinobiological) (SARS-CoV-2, UniProt P0DTC2 14-1213)
T1 construct: extracellular domain; also called Spike ECD蛋白
Assay: ELISA, spike ECD coated 50 ng/well, antibody titrated

Row | Binder | EC50
1 | B1 | 0.0351 µg/mL
2 | B2 | 0.0261 µg/mL
